Measured values: patent publication US20030082561

What was measured:
Assay in all cases: EMSA
[1] = tested on: ZFP Clone 6 (6-finger) (artificial); settings: probe flanks not given; 0.1 mM ZnCl2, 100 mM NaCl, on ice
[2] = tested on: ZFP Clone 5 (BCTV L1 6-finger) (artificial); settings: 10 mM Tris-HCl pH 7.5, 100 mM NaCl, 1 mM MgCl2, 0.1 mM ZnCl2, 1 mg/ml BSA, 10% glycerol, poly(dA-dT)2, on ice
[3] = tested on: ZFP Clone 7 (6-finger) (artificial); settings: probe flanks not given; 0.1 mM ZnCl2, 100 mM NaCl, on ice

## AGTAAGGTAGGAGATGATA (double strand) [Clone 6 target]
[1]
  Kd: < 3 pM

## TATATATATTGGGTGCTTTGGGTGCTCTATATATA (double strand) [L1 19-bp target probe]
[2]
  Kd: < 3 pM

## TACGTGGCATTGGGTGCTC (double strand) [Clone 7 target]
[3]
  Kd: < 3 pM
